Article PMC2760858
One block for each substance: values may come before it.

Columns and labels:
hERK1-GFP (human) = hERK1-GFP (human) (UniProt P27361); test: FRET or BRET; acceptor photobleaching FRET in fixed HeLa cells transfected with hERK1-GFP; partner labelled with primary antibody and Cy3-conjugated secondary antibody; GFP/Cy3 pair
[1] = molecular target: endogenous phospho-ERK1/2 (human (endogenous in HeLa)) (UniProt P27361); test: FRET or BRET; acceptor photobleaching FRET in fixed untransfected HeLa cells; endogenous phospho-ERK1/2 and partner labelled with primary antibodies and Cy3- or Cy5-conjugated secondary antibodies; Cy3/Cy5 pair
[2] = molecular target: GST-hERK1 recombinant protein (human) (UniProt P27361); test: non-reducing SDS-PAGE after pull-down, band identified by MALDI-TOF-MS; GST-hERK1 on GSH-agarose incubated with HeLa mitochondrial extract, high stringency; electrophoresis in the absence of β-ME or DTT; band of MW ~130

FRET efficiency (nuclei) (hERK1-GFP (human)): 0.3
mean FRET efficiency [1]: 0.17
Substance: Histone H2A (from UniProt P0C0S8 1-130) (natural protein)

mean FRET efficiency (cytoplasm) (hERK1-GFP (human)): 0.3
Substance: Porin 31HL (VDAC1), voltage-dependent anion channel 1 (from UniProt P21796 1-283) (natural protein)

stoichiometry N [2]: 2
Substance: GST-hERK1 recombinant protein (from UniProt P27361 1-379) (enzyme)

FRET efficiency (nuclei) (hERK1-GFP (human)): 0.2
Substance: Histone H4 (from UniProt P62805 1-103) (natural protein)
